Reference: patent US20230416365A1 (Hoffmann-La Roche, published 2023)
Blank lines part the entries; values can stand above or below the binder they belong to.

Legend:
[1] = molecular target: T1, biotinylated huCD28-Fc (dimeric CD28-Fc construct with a monovalent biotinylated avi-tag) (human, UniProt P10747 19-152, biotinylated at the C-terminal avi tag); test: SPR, ProteOn XPR36, huCD28-Fc immobilised, bispecific as analyte
T1 construct: not shown: hum IgG1 Fc fragment with hole and PG-LALA mutations; hum IgG1 Fc fragment with knob and PG-LALA mutations

[2] = molecular target: T2, human CEA (CEACAM5) on cells (MKN45 cells; MV3 cells engineered to express human CEACAM5) (human, UniProt P06731 35-685); test: flow cytometry on MV3 cells modified to express CEA
T2 sequence: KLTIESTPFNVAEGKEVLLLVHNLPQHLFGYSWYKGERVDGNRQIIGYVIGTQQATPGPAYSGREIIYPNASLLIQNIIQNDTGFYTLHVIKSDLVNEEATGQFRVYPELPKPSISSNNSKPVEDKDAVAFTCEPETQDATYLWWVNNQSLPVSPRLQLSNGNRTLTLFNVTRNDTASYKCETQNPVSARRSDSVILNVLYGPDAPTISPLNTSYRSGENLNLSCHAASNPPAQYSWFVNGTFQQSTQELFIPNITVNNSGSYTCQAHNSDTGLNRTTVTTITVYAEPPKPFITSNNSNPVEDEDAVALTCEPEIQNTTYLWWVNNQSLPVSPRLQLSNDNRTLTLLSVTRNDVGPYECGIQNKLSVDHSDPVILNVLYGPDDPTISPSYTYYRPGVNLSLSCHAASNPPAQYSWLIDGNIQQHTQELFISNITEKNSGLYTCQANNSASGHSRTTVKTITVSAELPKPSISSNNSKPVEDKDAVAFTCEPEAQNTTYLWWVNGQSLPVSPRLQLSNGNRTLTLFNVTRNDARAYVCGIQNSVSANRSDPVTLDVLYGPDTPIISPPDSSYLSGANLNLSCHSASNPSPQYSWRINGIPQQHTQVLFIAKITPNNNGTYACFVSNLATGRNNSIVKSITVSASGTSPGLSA

[3] = molecular target: T3, human CD28 on CHO cells (parental cell line CHO-k1 ATCC #CCL-61, modified to stably overexpress human CD28) (human, UniProt P10747 19-220); test: flow cytometry on CHO-hCD28 cells
T3 construct: also called hu CD28; CHO-hCD28

[4] = molecular target: T4, human GPRC5D on CHO-hGPRC5D cells (human, UniProt Q9NZD1 1-345); test: flow cytometry on CHO huGPRC5D cells, AF488 anti-human IgG Fc secondary
T4 construct: also called CHO huGPRC5D L2

[5] = molecular target: T5, human FAP on 3T3-huFAP cells (clone 19) (human, UniProt Q12884 1-760); test: flow cytometry on 3T3-huFAP cells, median fluorescence intensity (axis MFI APC)
[6] = molecular target: T4, human GPRC5D on CHO-hGPRC5D cells; test: flow cytometry on CHO huGPRC5D cells, PE anti-human IgG Fc secondary
[7] = molecular target: T3, human CD28 on CHO cells (parental cell …); test: flow cytometry on CHO cells stably expressing human CD28, FAP-CD28 1+1 constructs, MFI (PE)
[8] = molecular target: T1, biotinylated huCD28-Fc (dimeric CD28-Fc …); test: SPR, ProteOn XPR36, huCD28-Fc on NLC chip, bispecific as analyte
[9] = molecular target: T5, human FAP on 3T3-huFAP cells (clone 19); test: flow cytometry on 3T3-huFAP cells, FAP-CD28 1+1 constructs, MFI (PE)
[10] = molecular target: T3, human CD28 on CHO cells (parental cell …); test: binding to CHO cells expressing human CD28 (by the table's title)

EC50 (read off the curve) [5]: ~0.3 nM
B3: FAP-CD28SA 2+1 (P1AD5231) (bispecific antibody, human IgG1, kappa, L234A L235A)
heavy chain CD28(SA) VLCH1 - FAP(4B9) VHCH1 EE - Fc knob PGLALA: not shown
heavy chain FAP(4B9) VHCH1 EE - Fc hole PGLALA: EVQLLESGGGLVQPGGSLRLSCAASGFTFSSYAMSWVRQAPGKGLEWVSAIIGSGASTYYADSVKGRFTISRDNSKNTLYLQMNSLRAEDTAVYYCAKGWFGGFNYWGQGTLVTVSSASTKGPSVFPLAPSSKSTSGGTAALGCLVEDYFPEPVTVSWNSGALTSGVHTFPAVLQSSGLYSLSSVVTVPSSSLGTQTYICNVNHKPSNTKVDEKVEPKSCDKTHTCPPCPAPEAAGGPSVFLFPPKPKDTLMISRTPEVTCVVVDVSHEDPEVKFNWYVDGVEVHNAKTKPREEQYNSTYRVVSVLTVLHQDWLNGKEYKCKVSNKALGAPIEKTISKAKGQPREPQVCTLPPSRDELTKNQVSLSCAVKGFYPSDIAVEWESNGQPENNYKTTPPVLDSDGSFFLVSKLTVDKSRWQQGNVFSCSVMHEALHNHYTQKSLSLSP
CD28(SA) VHCL: QVQLVQSGAEVKKPGASVKVSCKASGYTFTSYYIHWVRQAPGQGLEWIGCIYPGNVNTNYNEKFKDRATLTVDTSISTAYMELSRLRSDDTAVYFCTRSHYGLDWNFDVWGQGTTVTVSSASVAAPSVFIFPPSDEQLKSGTASVVCLLNNFYPREAKVQWKVDNALQSGNSQESVTEQDSKDSTYSLSSTLTLSKADYEKHKVYACEVTHQGLSSPVTKSFNRGEC
FAP(4B9) VLCL RK: EIVLTQSPGTLSLSPGERATLSCRASQSVTSSYLAWYQQKPGQAPRLLINVGSRRATGIPDRFSGSGSGTDFTLTISRLEPEDFAVYYCQQGIMLPPTFGQGTKVEIKRTVAAPSVFIFPPSDRKLKSGTASVVCLLNNFYPREAKVQWKVDNALQSGNSQESVTEQDSKDSTYSLSSTLTLSKADYEKHKVYACEVTHQGLSSPVTKSFNRGEC
notes: monovalent for CD28, bivalent for FAP; also called Molecule G; FAP (4B9)-CD28 (SA) 2+1

EC50 [3]: 74.2 nM | binding result [6]: binds
B4: GPRC5D (5E11)-CD28 (SA_Variant 8) 1+1 format (Molecule 16B) (bispecific antibody, human IgG1, kappa, L234A L235A)
heavy 1: not shown
light 1: QVQLVQSGAEVKKPGASVKVSCKASGYTFTSYYIHWVRQAPGQGLEWIGSIYPGNVQTNYNEKFKDRATLTVDTSISTAYMELSRLRSDDTAVYFCTRSHYGLDFNFDVWGQGTTVTVSSASVAAPSVFIFPPSDEQLKSGTASVVCLLNNFYPREAKVQWKVDNALQSGNSQESVTEQDSKDSTYSLSSTLTLSKADYEKHKVYACEVTHQGLSSPVTKSFNRGEC
heavy 2: EVQLLESGGGLVQPGGSLRLSCAASGFTFSKYAMAWVRQAPGKGLEWVASISTGGVNTYYADSVKGRFTISRDNSKNTLYLQMNSLRAEDTAVYYCATHTGDYFDYWGQGTMVTVSSASTKGPSVFPLAPSSKSTSGGTAALGCLVEDYFPEPVTVSWNSGALTSGVHTFPAVLQSSGLYSLSSVVTVPSSSLGTQTYICNVNHKPSNTKVDEKVEPKSCDKTHTCPPCPAPEAAGGPSVFLFPPKPKDTLMISRTPEVTCVVVDVSHEDPEVKFNWYVDGVEVHNAKTKPREEQYNSTYRVVSVLTVLHQDWLNGKEYKCKVSNKALGAPIEKTISKAKGQPREPQVCTLPPSRDELTKNQVSLSCAVKGFYPSDIAVEWESNGQPENNYKTTPPVLDSDGSFFLVSKLTVDKSRWQQGNVFSCSVMHEALHNHYTQKSLSLSP
light 2: EIVLTQSPGTLSLSPGERATLSCRASQSVSISGINLMNWYQQKPGQQPKLLIYHASILASGIPDRFSGSGSGTDFTLTISRLEPEDFAVYYCQQTRESPLTFGQGTRLEIKRTVAAPSVFIFPPSDRKLKSGTASVVCLLNNFYPREAKVQWKVDNALQSGNSQESVTEQDSKDSTYSLSSTLTLSKADYEKHKVYACEVTHQGLSSPVTKSFNRGEC
notes: huIgG1 PG-LALA CrossFab; also called P1AF2954

EC50 (read off the curve) [7]: ~3 nM | Kd [8]: 5.4 nM | koff [8]: 0.00121 s⁻¹ | kon [8]: 227000 M⁻¹ s⁻¹ | binding result [9]: binds | Kd [10]: 5.4 nM
B5: FAP (4B9) - CD28 (CD28(SA)_Variant 27) 1+1 (bispecific antibody, human IgG1, kappa, L234A L235A)
heavy 1: EIVLTQSPGTLSLSPGERATLSCRASQSVTSSYLAWYQQKPGQAPRLLINVGSRRATGIPDRFSGSGSGTDFTLTISRLEPEDFAVYYCQQGIMLPPTFGQGTKVEIKSSASTKGPSVFPLAPSSKSTSGGTAALGCLVKDYFPEPVTVSWNSGALTSGVHTFPAVLQSSGLYSLSSVVTVPSSSLGTQTYICNVNHKPSNTKVDKKVEPKSCDKTHTCPPCPAPEAAGGPSVFLFPPKPKDTLMISRTPEVTCVVVDVSHEDPEVKFNWYVDGVEVHNAKTKPREEQYNSTYRVVSVLTVLHQDWLNGKEYKCKVSNKALGAPIEKTISKAKGQPREPQVCTLPPSRDELTKNQVSLSCAVKGFYPSDIAVEWESNGQPENNYKTTPPVLDSDGSFFLVSKLTVDKSRWQQGNVFSCSVMHEALHNHYTQKSLSLSP
light 1: EVQLLESGGGLVQPGGSLRLSCAASGFTFSSYAMSWVRQAPGKGLEWVSAIIGSGASTYYADSVKGRFTISRDNSKNTLYLQMNSLRAEDTAVYYCAKGWFGGFNYWGQGTLVTVSSASVAAPSVFIFPPSDEQLKSGTASVVCLLNNFYPREAKVQWKVDNALQSGNSQESVTEQDSKDSTYSLSSTLTLSKADYEKHKVYACEVTHQGLSSPVTKSFNRGEC
heavy 2: not shown
light 2: not shown
notes: huIgG1 PG-LALA CrossFab 1+1; also called P1AE3140

Second part, the binder before the results:

B1: CEA (A5H1EL1D)-CD28 (SA_Variant 15) 1+1 format (Molecule 11C) (bispecific antibody, human IgG1, kappa, L234A L235A)
heavy 1: EIVLTQSPATLSLSPGERATLSCRASSSVTYIHWYQQKPGQAPRSWIYATSNLASGIPARFSGSGSGTDFTLTISSLEPEDFAVYYCQHWSSKPPTFGQGTKLEIKSSASTKGPSVFPLAPSSKSTSGGTAALGCLVKDYFPEPVTVSWNSGALTSGVHTFPAVLQSSGLYSLSSVVTVPSSSLGTQTYICNVNHKPSNTKVDKKVEPKSCDKTHTCPPCPAPEAAGGPSVFLFPPKPKDTLMISRTPEVTCVVVDVSHEDPEVKFNWYVDGVEVHNAKTKPREEQYNSTYRVVSVLTVLHQDWLNGKEYKCKVSNKALGAPIEKTISKAKGQPREPQVCTLPPSRDELTKNQVSLSCAVKGFYPSDIAVEWESNGQPENNYKTTPPVLDSDGSFFLVSKLTVDKSRWQQGNVFSCSVMHEALHNHYTQKSLSLSP
light 1: EVQLLESGGGLVQPGGSLRLSCAASGFTFTDYYMNWVRQAPGKGLEWLGFIGNKANAYTTEYSASVKGRFTISRDKSKNTLYLQMNSLRAEDTATYYCTRDRGLRFYFDYWGQGTTVTVSSASVAAPSVFIFPPSDEQLKSGTASVVCLLNNFYPREAKVQWKVDNALQSGNSQESVTEQDSKDSTYSLSSTLTLSKADYEKHKVYACEVTHQGLSSPVTKSFNRGEC
heavy 2: not shown
light 2: not shown
notes: huIgG1 PG-LALA CrossFab; also called P1AE4775
Kd [1]: 10 nM | koff [1]: 0.00264 s⁻¹ | kon [1]: 259000 M⁻¹ s⁻¹ | EC50 [2]: 20.4 nM

B2: GPRC5D (5E11)-CD28 (SA_Variant 15) 1+1 format (Molecule 16A) (bispecific antibody, human IgG1, kappa, L234A L235A)
heavy 1: not shown
light 1: QVQLVQSGAEVKKPGASVKVSCKASGYTFTSYYIHWVRQAPGQGLEWIGSIYPGNVQTNYNEKFKDRATLTVDTSISTAYMELSRLRSDDTAVYFCTRSHYGLDWNFDVWGQGTTVTVSSASVAAPSVFIFPPSDEQLKSGTASVVCLLNNFYPREAKVQWKVDNALQSGNSQESVTEQDSKDSTYSLSSTLTLSKADYEKHKVYACEVTHQGLSSPVTKSFNRGEC
heavy 2: EVQLLESGGGLVQPGGSLRLSCAASGFTFSKYAMAWVRQAPGKGLEWVASISTGGVNTYYADSVKGRFTISRDNSKNTLYLQMNSLRAEDTAVYYCATHTGDYFDYWGQGTMVTVSSASTKGPSVFPLAPSSKSTSGGTAALGCLVEDYFPEPVTVSWNSGALTSGVHTFPAVLQSSGLYSLSSVVTVPSSSLGTQTYICNVNHKPSNTKVDEKVEPKSCDKTHTCPPCPAPEAAGGPSVFLFPPKPKDTLMISRTPEVTCVVVDVSHEDPEVKFNWYVDGVEVHNAKTKPREEQYNSTYRVVSVLTVLHQDWLNGKEYKCKVSNKALGAPIEKTISKAKGQPREPQVCTLPPSRDELTKNQVSLSCAVKGFYPSDIAVEWESNGQPENNYKTTPPVLDSDGSFFLVSKLTVDKSRWQQGNVFSCSVMHEALHNHYTQKSLSLSP
light 2: EIVLTQSPGTLSLSPGERATLSCRASQSVSISGINLMNWYQQKPGQQPKLLIYHASILASGIPDRFSGSGSGTDFTLTISRLEPEDFAVYYCQQTRESPLTFGQGTRLEIKRTVAAPSVFIFPPSDRKLKSGTASVVCLLNNFYPREAKVQWKVDNALQSGNSQESVTEQDSKDSTYSLSSTLTLSKADYEKHKVYACEVTHQGLSSPVTKSFNRGEC
notes: huIgG1 PG-LALA CrossFab; also called P1AF1272
EC50 [3]: 4.7 to 5.2 nM | binding result [4]: binds
